The target of the test is T1, recombinant CD3E protein (UniProt P07766 23-126, limits assumed).
T1 construct: also called CD3ε; CD3 epsilon
As to the kind of experiment: SPR (BIAcore T200); fusion protein on exosomes (1x10^11) coated on CM5 chip, recombinant CD3E protein as analyte at 700-21.9 nM; fusion protein (1×10^11) coated on CM5 chip; recombinant CD3E as analyte. A general note: Surface plasmon resonance follows binding to a sensor surface in real time, without labels.

T1 sequence (P07766 23-126 limits assumed): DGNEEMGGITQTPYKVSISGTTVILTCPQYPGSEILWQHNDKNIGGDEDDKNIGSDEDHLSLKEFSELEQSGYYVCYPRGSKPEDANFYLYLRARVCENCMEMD

B1: fusion protein comprising anti-CD3 single domain antibody and exosomal protein CD63 (other)
chain: MAVEGGMKCVKFLLYVLLLAFCACAVGLIAVGVGAQLVLSQTIIQGATPGSLLPVVIIAVGVFLFLVAFVGCCGACKENYCLMITFAIFLSLIMLVEVAAAIAGYVFRDKVMSEFNNNFRQQMENYPKNNHTASAHVQLVESGGGSVQAGGSLRLSCTVSGVIFKNEYMGWFRQAPGKEREGVAAASPGGTITYYGDSVKGRFTISRDNAKNTVYLQMNRLKPEDTAMYYCALDPSTTSWSIIRHGPSLWRYSGRGTQVTVSSGSSILDRMQADFKCCGAANYTDWEKIPSMSKNRVPDSCCINVTVGCGINFNEKAIHKEGCVEKIGGWLRKNVLVVAAAALGIAFVEVLGIVFACCLVKSIRSGYEVM
notes: in the SPR assay the exosomes carrying the fusion protein (1x10^11) were coated on a CM5 chip; also called anti-CD3 single domain antibody-CD63 chimeric protein; CD3ε Nb-Exo
In the case of B1, the Kd came to 2.1 nM.

As a reminder, the Kd is the free concentration of one partner at which half of the binding sites on the other are occupied at equilibrium, for simple one-to-one binding.

For the origin of these results see patent US12221483 (CHINA MEDICAL UNIVERSITY HOSPITAL, dated 2025).
